Test results taken from patent US20240018252A1.
Numbering of substitutions follows the chain as printed. In names and notes the source's numbering stands. Several values for one entry are separate records, joined by “and”; a condition that tells them apart may be missing. Equal entries are not always repeated.

B1: A02_Rd4_6nM_C01 N297Q/K222R Aclys vc0101 (antibody, V domains shown)
VH: EVQLLESGGGLVQPGGSLRLSCAASGFTFSSYAMNWVRQAPGKGLEWVSAITASGGSTYYADSVKGRFTISRDNSKNTLYLQMNSLRAEDTAVYYCARYWPMSLWGQGTLVTVSS
VL: EIVLTQSPGTLSLSPGERATLSCRASQSVSAYYLAWYQQKPGQAPRLLMYDASIRATGIPDRFSGSGSGTDFTLTISRLEPEDFAVYYCQQYERWPLTFGQGTKVEIK
modifications: N297Q and K222R (EU) in the human IgG1 constant region; AcLys-Val-Cit-PABC-Aur0101 joined by transglutaminase to the glutamine at 297
B2: Combo_Rd4_0.6nM_C29 H7c/N297A/K222R AmPEG6 Aur0131 (antibody, V domains shown)
VH: B1 VH with A33P, N35S, T52G, A53G, T58L, Y59P, S103D, L104I
VL: B1 VL with A31S, Y32S, E93Q, R94S
modifications: H7c tag LLQG (SEQ ID NO: 454), N297A and K222R (EU) in the human IgG1 heavy chain constant region; amino-PEG6-C2-Aur0131 joined by transglutaminase
B3: Combo_Rd4_0.6nM_C29 H7c/N297A/K222R AmPEG6 Aur3377 (antibody, V domains shown)
VH: B1 VH with A33P, N35S, T52G, A53G, T58L, Y59P, S103D, L104I
VL: B1 VL with A31S, Y32S, E93Q, R94S
modifications: H7c tag LLQG (SEQ ID NO: 454), N297A and K222R (EU) in the human IgG1 heavy chain constant region; amino-PEG6-C2-Aur3377 joined by transglutaminase
B4: COMBO_Rd4_0.6nM_C22/h2B4 anti-BCMA/CD3 bispecific (bispecific antibody, V domains shown)
VH 1: B1 VH with T52S, A53D, T58R, Y59W, A97T, S103D, L104I
VL 1: B1 VL with Q27V, S28R, A31S, Y32T, E93M, R94K
VH 2: EVQLVESGGGLVQPGGSLRLSCAASGFTFSDYYMTWVRQAPGKGLEWVAFIRNRARGYTSDHNASVKGRFTISRDNAKNSLYLQMNSLRAEDTAVYYCARDRPSYYVLDYWGQGTTVTVSS
VL 2: DIVMTQSPDSLAVSLGERATINCTSSQSLFNVRSRKNYLAWYQQKPGQPPKLLISWASTRESGVPDRFSGSGSGTDFTLTISSLQAEDVAVYYCKQSYDLFTFGSGTKLEIK
B5: A02_Rd4_0.6nM_C18 (antibody, V domains shown)
VH: B1 VH with I51V, T52L, A53D
VL: B1 VL with A31E, Y32L, E93F, R94G
B6: A02_Rd4_6nM_C01/h2B4 anti-BCMA/CD3 bispecific (bispecific antibody, V domains shown)
VH 1: B1 VH
VL 1: B1 VL
VH 2: B4 VH 2
VL 2: B4 VL 2
B7: A02_Rd4_0.6nM_C06 (antibody, V domains shown)
VH: B1 VH with T52S, A53D, T58A, Y59W
VL: B1 VL with A31V, Y32L, E93Q
B8: A02_Rd4_6nM_C04 (antibody, V domains shown)
VH: B1 VH with T52M, A53S, S57P, T58L, S103A
VL: B1 VL with Y32L, E93Q, R94V
B9: C01_Rd4_6nM_C12/h2B4 anti-BCMA/CD3 bispecific (bispecific antibody, V domains shown)
VH 1: B1 VH with A33P, N35S, T52G, A53G, S57W, T58S, S103D, L104S
VL 1: B1 VL with R24W, A25L, A31S, Y32T, M49I, I54S, T57P, E93S, R94E
VH 2: B4 VH 2
VL 2: B4 VL 2
B10: A02_Rd4_6nM_C19 (antibody, V domains shown)
VH: B1 VH with T52S, A53D, T58R, Y59W, L104D
VL: B1 VL with A31V, Y32L, E93L, R94A
B11: Combo_Rd4_0.6nM_C29 LCQ05/N297Q/K222R Aclys vc0101 (antibody, human IgG1, part only)
heavy: B1 VH with A33P, N35S, T52G, A53G, T58L, Y59P, S103D, L104I
light: B1 VL with A31S, Y32S, E93Q, R94S
chain: GGLLQGPP
modifications: LCQ05 tag; Aclys vc0101 drug conjugate
B12: P5C1/h2B4 anti-BCMA/CD3 bispecific (bispecific antibody, V domains shown)
VH 1: B1 VH with A33P, N35S, T52G, A53G, S103D, L104S
VL 1: B1 VL with A31S, Y32T, M49I, I54S, T57P, E93S, R94T, W95S
VH 2: B4 VH 2
VL 2: B4 VL 2
B13: Combo_Rd4_0.6nM_C29 LCQ05/K222R Aclys vc0101 (antibody, human IgG1, part only)
heavy: B1 VH with A33P, N35S, T52G, A53G, T58L, Y59P, S103D, L104I
light: B1 VL with A31S, Y32S, E93Q, R94S
chain: GGLLQGPP
modifications: LCQ05 tag; Aclys vc0101 drug conjugate
B14: A02_Rd4_6nM_C16/h2B4 anti-BCMA/CD3 bispecific (bispecific antibody, V domains shown)
VH 1: B1 VH with T52S, A53D, S54F, S103D, L104I
VL 1: B1 VL with A31D, Y32L, E93Q, R94T
VH 2: B4 VH 2
VL 2: B4 VL 2
B15: Combo_Rd4_0.6nM_C29/h2B4 anti-BCMA/CD3 bispecific (bispecific antibody, V domains shown)
VH 1: B1 VH with A33P, N35S, T52G, A53G, T58L, Y59P, S103D, L104I
VL 1: B1 VL with A31S, Y32S, E93Q, R94S
VH 2: B4 VH 2
VL 2: B4 VL 2
B16: Combo_Rd4_0.6nM_C29 N297Q/K222R Aclys vc0101 (antibody, V domains shown)
VH: B1 VH with A33P, N35S, T52G, A53G, T58L, Y59P, S103D, L104I
VL: B1 VL with A31S, Y32S, E93Q, R94S
modifications: N297Q and K222R (EU) in the human IgG1 constant region; AcLys-Val-Cit-PABC-Aur0101 joined by transglutaminase to the glutamine at 297
B17: A02_Rd4_6nM_C08 (antibody, V domains shown)
VH: B1 VH with T52L, A53D, L104P
VL: B1 VL with A31F, Y32L, E93G, R94S
B18: A02_Rd4_6nM_C16 N297Q/K222R Aclys vc0101 (antibody, V domains shown)
VH: B1 VH with T52S, A53D, S54F, S103D, L104I
VL: B1 VL with A31D, Y32L, E93Q, R94T
modifications: N297Q and K222R (EU) in the human IgG1 constant region; AcLys-Val-Cit-PABC-Aur0101 joined by transglutaminase to the glutamine at 297
B19: A02_Rd4_0.6nM_C01/h2B4 anti-BCMA/CD3 bispecific (bispecific antibody, V domains shown)
VH 1: B1 VH with T52L, A53S, S103D, L104I
VL 1: B1 VL with A25G, S26G, A31S, Y32S, E93Q, R94S
VH 2: B4 VH 2
VL 2: B4 VL 2

Legend:
[1] = molecular target: human BCMA on BCMA-expressing tumor cells (human) (UniProt Q02223); test: cell-based or functional assay
[2] = molecular target: human BCMA (B-Cell Maturation Antigen) on myeloma cells (human) (UniProt Q02223); test: cell-based or functional assay
[3] = molecular target: cynomolgus BCMA (cynomolgus (given as cyBCMA, Cyno)); test: SPR, IgG immobilized, cyno BCMA analyte, 37 C
Sequence of cynomolgus BCMA (cynomolgus (given as cyBCMA, Cyno)) (chain, as listed by the source): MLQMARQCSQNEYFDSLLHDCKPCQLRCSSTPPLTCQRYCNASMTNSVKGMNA

Sequence of human BCMA on BCMA-expressing tumor cells (human) (Q02223 whole entry): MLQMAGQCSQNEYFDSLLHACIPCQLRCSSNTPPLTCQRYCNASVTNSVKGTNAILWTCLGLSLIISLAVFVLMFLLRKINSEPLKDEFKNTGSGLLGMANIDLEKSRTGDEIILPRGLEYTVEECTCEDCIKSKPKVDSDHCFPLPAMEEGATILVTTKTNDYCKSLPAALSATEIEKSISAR
Sequence of human BCMA (B-Cell Maturation Antigen) on myeloma cells (human) (Q02223 whole entry): as above

Binder | EC50, cell viability (CellTiter-Glo, 96 h), KMS12BM LUCGFP (+) [1] | EC50, cell viability (CellTiter-Glo, 96 h), L363 LUCGFP (+) [1] | EC50, cell viability (CellTiter-Glo, 96 h), MM1.S LUCGFP (BCMA++) [1] | EC50, T-cell mediated cytotoxicity (LDH release, 20 h) on KMS12BM (BCMA+) cells [2] [pM] | EC50, T-cell mediated cytotoxicity (LDH release, 20 h) on KMS12PE (BCMA+++) cells [2] [pM] | EC50, T-cell mediated cytotoxicity (LDH release, 20 h) on MOLP8 (MOLP8+) cells [2] [pM] | other results
B1 | 18.7 nM and 2.8 µg/mL | 2.53 nM and 0.38 µg/mL | 0.26 nM and 0.04 µg/mL |  |  |  | 
B2 | 0.85 nM and 0.13 µg/mL | 0.81 nM and 0.12 µg/mL | 0.23 nM and 0.03 µg/mL |  |  |  | 
B3 | 5.01 nM and 0.75 µg/mL | 1.36 nM and 0.2 µg/mL | 0.3 nM and 0.05 µg/mL |  |  |  | 
B4 |  |  |  | 49 | 115 | 65 | 
B5 |  |  |  |  |  |  | Kd [3]: 197 pM; koff [3]: 0.000639 s⁻¹; kon [3]: 3.24e+06 M⁻¹ s⁻¹
B6 |  |  |  | 57 |  | 60 | 
B7 |  |  |  |  |  |  | Kd [3]: 58 pM; koff [3]: 0.000105 s⁻¹; kon [3]: 1.81e+06 M⁻¹ s⁻¹
B8 |  |  |  |  |  |  | Kd [3]: 381 pM; koff [3]: 0.000831 s⁻¹; kon [3]: 2.18e+06 M⁻¹ s⁻¹
B9 |  |  |  | 415 | 189 | 850 | 
B10 |  |  |  |  |  |  | Kd [3]: 260 pM; koff [3]: 0.000661 s⁻¹; kon [3]: 2.54e+06 M⁻¹ s⁻¹
B11 | 1.19 nM and 0.18 µg/mL | 1.05 nM and 0.16 µg/mL | 0.34 nM and 0.05 µg/mL |  |  |  | 
B12 |  |  |  | 4120 | 581 |  | 
B13 | 10.9 nM and 1.64 µg/mL | 1.67 nM and 0.25 µg/mL | 0.13 nM and 0.02 µg/mL |  |  |  | 
B14 |  |  |  | 52 | 186 | 315 | EC50 (nM), killing of primary myeloma cells in bone marrow mononuclear cells of patient MM00146 (flow cytometry, day 5) [2]: 0.029 nM
B15 |  |  |  | 49 | 175 | 201 | EC50 (nM), killing of primary myeloma cells, patient MM00146, E:T 1:1 [2]: 0.035 nM; EC50 (nM), killing of primary myeloma cells, patient MM00147, E:T 2:1 [2]: 0.031 nM; EC50 (nM), killing of primary myeloma cells, patient MM00151, E:T 3:1 [2]: 0.02 nM; EC50 (nM), killing of primary myeloma cells, patient MM00152, E:T 1:2 [2]: 0.289 nM
B16 | 0.99 nM and 0.15 µg/mL | 0.66 nM and 0.1 µg/mL | 0.11 nM and 0.02 µg/mL |  |  |  | 
B17 |  |  |  |  |  |  | Kd [3]: 5070 pM; koff [3]: 0.0113 s⁻¹; kon [3]: 2.23e+06 M⁻¹ s⁻¹
B18 | 38.7 nM and 5.81 µg/mL | 9.68 nM and 1.45 µg/mL | 0.8 nM and 0.12 µg/mL |  |  |  | 
B19 |  |  |  | 78 | 73 | 550 | EC50 (nM), killing of primary myeloma cells in bone marrow mononuclear cells of patient MM00146 (flow cytometry, day 5) [2]: 0.064 nM
